Data reported in the nanobody polyreactivity screen of Harvey et al. (2022).

Assay: yeast display, Sf9 membrane polyspecificity reagent, FACS + sequencing; frameworks hold sequencing errors
How it was run: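 Sorting gates, low and high (top ~1%), were placed on anti-HA fluorescence to track expression and on streptavidin fluorescence to track reagent binding. A clone's polyreactivity label is taken from the gate it came out of. The reagent was 10% biotinylated, detergent-solubilized Sf9 membrane, applied for 1 hour at 4 °C to galactose-induced yeast display cells.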

Row | Sequence | polyreactivity (PSR sort gate)
1 | QDQLVESGGGLVQAGGSLRLSCAASGFTFAGYAMGWYRQAPGKERELVAAITYSGGRTYYADSVKGRFTISRDNAKNTVYLQMNSLKPEDTAVYYCAARNYRYPGRYVYWGQGTQVTVSS | high polyreactivity
2 | QVQLVESGGGLVQAGGSLRLTCAASGRTYRKNAMGWYRQAPGKETELVAAITGSSGTTYYADSVKARFTISRDNAKISVYFQMNSLKPEDTAVYYCATTVCDPGRRYYYWGLGTQVTVSS | high polyreactivity
3 | QVQLVESGGGLVQAGGSLRLSCAASGFILKPYAMGWYRQAPWKERELVAAITYSGSSTYYADSVKGRFTISRDNAKNTVYLQMNSLKPEDTAVYYCAARDWSHPRRLFYWGQGTQVTVSS | high polyreactivity
4 | QVQIVESGGGLVQAGGSLRLSCAASGSTFPYNAMVWYRKEPGKERELVAVITTVGSTYYADSVKGRFTISRDNAKNTVYLQMNSLKPEDTAVYYCAAANTQSPGYDYWGQGTQVTVSS | low polyreactivity
5 | QVHLVESGGGLVQAGGSLRLSCAASGSTFVGNAMGWNRKAPGKERELVATISNSGGRTYYADSVKGPFTISRDNAKNTVYLEMNSLKPEDTAVYYCAADHPAFGPVYSFDYWGQGTQVTVSS | low polyreactivity
6 | QDQLVESCGGLVQAGGSLRLSCASSGSTIYIYAMGWSRQAPVKERELVAAITWSGGSTYYADSVKGRFTISRDNAKNTVYLQMNSLNREDTAVYYFAAYLRYYRKEVGYSSMNYWGQGTQVTVSS | high polyreactivity
7 | QVQLVESGGGLVQAGGSLRLSCAASGSIFVGNAMGWYRQAPGKERELVAAISWSGGSTYYADSVKGRFTISRDNAKNTVYLQMNSLKPEDTAVYYCATQLSIRMDYWGQGTQVTVSS | high polyreactivity
8 | QVQLVESGGGLVQAGGSLRLSCAASGFTFYYNAMGWYRQAPGKERELVASISRGTSTNYADSVKGRFTISRDNAKNTVYLQMNSLKPEDTAVYYCAAKSYSDYDYWGQGTQVTVSS | low polyreactivity
9 | QVQLVESGGGLVQAGGSLRLSCAASGRTFPGYAMGWYRQAPGKERELVASITSRGGITNYADSVKGRFTISRDIAKNTVYLQMLCLKPEDTSVYYCAAVSFWTMDYWGQGTQVTVSS | low polyreactivity
10 | QVQLVESGGGLVQAGGSLRLSCAASGRTFKGYAMGWYRQAPGKERELVAAITGSVGSTYYADSVKGRFTISRDNAKNTVYLQMNSLKPEDTAVYYCAKRWKATRARYDYWGQGTQVTVSS | high polyreactivity
11 | QVQLVESGGGLVPAGGSLRLSCAASGRTFRYYGMGWYRQAPGTERELLAAISWRGGSTNYADSVKGRFTISRDNAKNTVYLQMNSLKREDTAVYYCAVGTVYLTYRGYEYWGQGTQVTVSS | high polyreactivity
12 | QVQLVESGGGLVQAGGSLRLSGAASGRTLYCYAMGWSRQAPGKEREFVAAMSRSGGSTYYADSVKGRFTISRDNAKNTVYLQMNRLKPEETAVYYCADDRSFLQIYKAGPQYRSNYWGQGTQVTVSS | high polyreactivity
13 | QVQLVESGGGLVQAGGSLRLSCAASGSIFHYNAMGWYRQAPGKERELVARISVNGGRTYYADSVKGRFTISRDNAKNTVYLQMNSLKPEDTEVYYCAVEGVWRSFFYGYDSWGQGTQVTVSS | low polyreactivity
14 | QVQLVESAGGLVQAGGSLRLSCAASGITLSYNAMGWYRQAPGKERELVAAISARGGSTYYADSVKGRFTISRDNAKNTVYLQMNSLKPEVTAVYYCAAPRGWRQNKYDYWGQGTEVTVSS | high polyreactivity
15 | QVQHVESVGGLVQAGGSLRLSCAASGSIFFWYDMGWYRQAPGKERELVASISSGGSTYYADSVKGRFTISRDNAKNTVYLQMNSLKPEDNAVYYCNAKSWSPAKSFSFFRFDYWGQGTQVTVSS | low polyreactivity
16 | QVQLVESGGGLVQAGGSLRLSCAASGRILPGYAMGWYRQAPGKERELVAAIRGNGDSTYYADSVKGRFTISRDNAKNTVYLQMNSLKPEDTAVYYCAARRVSTIQRDSYRGRKYGYWGQGTQVTVSS | low polyreactivity
17 | QVQLVESGGGLVQAGGSLRLSCAASGSIFGYNAMGWYRQAPGKERELVAAISYSGGRTYYADSVKGRFTISRDNAKNTVYLQMNSLKPEDTAVYYCAKYKVGYVPSGYRYDSWGQGTQVTVSS | high polyreactivity
18 | QVQLVESGGGLVQAGGSLRLSCAASGLIFGPYAMGWYRQAPGKERELVAAISARGGSTRYADSVKGRFTISRDNAKNTVYLQMNSLKPEDTAVYYCAASTWYGYDYWGQGTQVTVSS | high polyreactivity
19 | QVQLVESGGGLVQAGGSLRLSCAASGIIIDTNAMGWYRQAPGTERELVASISKRGGSTYYADSVKGRFTISRDNAKNTVYLQMNSLKPEDTAVYYCNALRRRQYHDDYWGQGTQVTVSS | high polyreactivity
20 | QVQLVESGGGLVQAGGSLLLSCAASGRTFYYNDMGWYRQAPGKERELVASISYGGSTYYADSVKGRFTISRDNAKNTVYLQMNSLKPEDTAVYYCATVDWRWRYARRPRYDYWGQGTQVTVSS | high polyreactivity
21 | QVQLVESGGGLVQAGGSLRLSCAAAGRTFYPYVMGWYRQAPGKERELVATISWSGGSTYYADSVKGRFTISRDNAKNSVYLQMNSLKPEDTAVYYCAALWPYGYWGQGTQVTVSS | low polyreactivity
